Reference: patent EP4537907A1

Legend:
[1] = target: ADT3 in human lung fibroblasts (human) (UniProt P12236); experiment: LRC-TriCEPS ligand-receptor capture on living human lung fibroblasts (n=3 donors), LC-MS/MS enrichment; reference ligand BSA
[2] = target: CD248 on human lung fibroblasts (human) (UniProt Q9HCU0); experiment: as above
[3] = target: CD44 on human lung fibroblasts (human) (UniProt P16070); experiment: as above
[4] = target: GPC1 on human lung fibroblasts (human) (UniProt P35052); experiment: as above
[5] = target: NRP1 on human lung fibroblasts (human) (UniProt O14786); experiment: as above
[6] = target: CSPG4 on human lung fibroblasts (human) (UniProt Q6UVK1); experiment: as above
[7] = target: SNX18 in human lung fibroblasts (human) (UniProt Q96RF0); experiment: as above
[8] = target: RECK on human lung fibroblasts (human) (UniProt O95980); experiment: as above
[9] = target: CAVN1 in human lung fibroblasts (human) (UniProt Q6NZI2); experiment: as above
[10] = target: ADRB1 on human lung fibroblasts (human) (UniProt P08588); experiment: as above
[11] = target: ADT3 in human lung fibroblasts (human) (UniProt P12236); experiment: LRC-TriCEPS ligand-receptor capture on living human lung fibroblasts (n=3 donors), LC-MS/MS enrichment; reference ligand transferrin (TRFE)
[12] = target: CD248 on human lung fibroblasts (human) (UniProt Q9HCU0); experiment: as above
[13] = target: CD44 on human lung fibroblasts (human) (UniProt P16070); experiment: as above
[14] = target: GPC1 on human lung fibroblasts (human) (UniProt P35052); experiment: as above
[15] = target: NRP1 on human lung fibroblasts (human) (UniProt O14786); experiment: as above
[16] = target: CSPG4 on human lung fibroblasts (human) (UniProt Q6UVK1); experiment: as above
[17] = target: SNX18 in human lung fibroblasts (human) (UniProt Q96RF0); experiment: as above
[18] = target: RECK on human lung fibroblasts (human) (UniProt O95980); experiment: as above
[19] = target: CAVN1 in human lung fibroblasts (human) (UniProt Q6NZI2); experiment: as above
[20] = target: ADRB1 on human lung fibroblasts (human) (UniProt P08588); experiment: as above

Sequence of SNX18 in human lung fibroblasts (human) (Q96RF0 whole entry): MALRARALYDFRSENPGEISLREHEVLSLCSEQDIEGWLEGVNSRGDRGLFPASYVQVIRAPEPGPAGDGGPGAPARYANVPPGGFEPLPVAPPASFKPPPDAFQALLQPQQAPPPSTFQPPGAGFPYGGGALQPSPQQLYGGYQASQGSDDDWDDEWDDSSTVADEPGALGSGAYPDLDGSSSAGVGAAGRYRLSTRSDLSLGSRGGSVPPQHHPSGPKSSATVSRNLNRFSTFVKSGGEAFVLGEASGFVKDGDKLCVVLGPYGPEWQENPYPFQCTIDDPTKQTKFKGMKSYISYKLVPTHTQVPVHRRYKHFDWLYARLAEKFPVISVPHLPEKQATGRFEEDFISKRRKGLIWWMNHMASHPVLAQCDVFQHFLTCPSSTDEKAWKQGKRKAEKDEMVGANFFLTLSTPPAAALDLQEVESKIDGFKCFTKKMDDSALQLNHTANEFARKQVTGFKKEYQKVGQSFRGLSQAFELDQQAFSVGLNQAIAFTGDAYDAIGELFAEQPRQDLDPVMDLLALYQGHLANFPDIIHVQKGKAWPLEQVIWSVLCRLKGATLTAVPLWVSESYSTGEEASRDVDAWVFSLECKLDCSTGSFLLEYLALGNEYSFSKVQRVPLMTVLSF
Sequence of CD44 on human lung fibroblasts (human) (P16070 21-742): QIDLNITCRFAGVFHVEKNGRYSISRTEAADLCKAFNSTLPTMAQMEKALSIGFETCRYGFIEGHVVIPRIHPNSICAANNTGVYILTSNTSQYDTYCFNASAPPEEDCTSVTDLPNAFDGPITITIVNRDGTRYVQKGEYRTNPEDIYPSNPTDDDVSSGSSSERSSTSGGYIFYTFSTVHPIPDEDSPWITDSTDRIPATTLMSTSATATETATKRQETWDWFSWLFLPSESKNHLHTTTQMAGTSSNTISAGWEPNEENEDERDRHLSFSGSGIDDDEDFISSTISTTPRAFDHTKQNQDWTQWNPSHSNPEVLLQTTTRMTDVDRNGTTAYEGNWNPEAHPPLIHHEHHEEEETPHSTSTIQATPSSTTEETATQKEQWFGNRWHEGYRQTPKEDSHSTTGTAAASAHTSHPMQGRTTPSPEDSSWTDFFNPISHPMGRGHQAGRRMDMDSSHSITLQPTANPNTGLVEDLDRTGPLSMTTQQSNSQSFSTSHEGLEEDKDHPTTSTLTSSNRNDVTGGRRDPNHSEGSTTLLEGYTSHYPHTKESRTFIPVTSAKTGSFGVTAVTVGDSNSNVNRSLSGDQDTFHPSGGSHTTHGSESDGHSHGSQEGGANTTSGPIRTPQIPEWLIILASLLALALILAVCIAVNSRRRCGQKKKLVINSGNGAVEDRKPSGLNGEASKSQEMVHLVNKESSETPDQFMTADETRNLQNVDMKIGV
Sequence of GPC1 on human lung fibroblasts (human) (P35052 24-530): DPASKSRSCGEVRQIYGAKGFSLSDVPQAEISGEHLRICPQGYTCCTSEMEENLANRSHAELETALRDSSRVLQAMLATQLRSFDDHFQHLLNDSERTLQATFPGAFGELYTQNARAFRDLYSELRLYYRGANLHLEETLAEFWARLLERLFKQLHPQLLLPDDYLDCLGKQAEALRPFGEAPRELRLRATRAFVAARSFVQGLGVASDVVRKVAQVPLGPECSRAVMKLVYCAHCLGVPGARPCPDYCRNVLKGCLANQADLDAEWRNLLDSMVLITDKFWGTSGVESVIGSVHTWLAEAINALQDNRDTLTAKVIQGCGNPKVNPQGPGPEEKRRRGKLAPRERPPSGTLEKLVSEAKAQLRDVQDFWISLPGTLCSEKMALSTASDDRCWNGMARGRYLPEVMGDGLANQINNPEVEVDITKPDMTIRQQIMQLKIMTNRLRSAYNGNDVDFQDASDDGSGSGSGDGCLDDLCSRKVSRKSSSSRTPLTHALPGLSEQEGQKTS
Sequence of CSPG4 on human lung fibroblasts (human) (Q6UVK1 30-2322): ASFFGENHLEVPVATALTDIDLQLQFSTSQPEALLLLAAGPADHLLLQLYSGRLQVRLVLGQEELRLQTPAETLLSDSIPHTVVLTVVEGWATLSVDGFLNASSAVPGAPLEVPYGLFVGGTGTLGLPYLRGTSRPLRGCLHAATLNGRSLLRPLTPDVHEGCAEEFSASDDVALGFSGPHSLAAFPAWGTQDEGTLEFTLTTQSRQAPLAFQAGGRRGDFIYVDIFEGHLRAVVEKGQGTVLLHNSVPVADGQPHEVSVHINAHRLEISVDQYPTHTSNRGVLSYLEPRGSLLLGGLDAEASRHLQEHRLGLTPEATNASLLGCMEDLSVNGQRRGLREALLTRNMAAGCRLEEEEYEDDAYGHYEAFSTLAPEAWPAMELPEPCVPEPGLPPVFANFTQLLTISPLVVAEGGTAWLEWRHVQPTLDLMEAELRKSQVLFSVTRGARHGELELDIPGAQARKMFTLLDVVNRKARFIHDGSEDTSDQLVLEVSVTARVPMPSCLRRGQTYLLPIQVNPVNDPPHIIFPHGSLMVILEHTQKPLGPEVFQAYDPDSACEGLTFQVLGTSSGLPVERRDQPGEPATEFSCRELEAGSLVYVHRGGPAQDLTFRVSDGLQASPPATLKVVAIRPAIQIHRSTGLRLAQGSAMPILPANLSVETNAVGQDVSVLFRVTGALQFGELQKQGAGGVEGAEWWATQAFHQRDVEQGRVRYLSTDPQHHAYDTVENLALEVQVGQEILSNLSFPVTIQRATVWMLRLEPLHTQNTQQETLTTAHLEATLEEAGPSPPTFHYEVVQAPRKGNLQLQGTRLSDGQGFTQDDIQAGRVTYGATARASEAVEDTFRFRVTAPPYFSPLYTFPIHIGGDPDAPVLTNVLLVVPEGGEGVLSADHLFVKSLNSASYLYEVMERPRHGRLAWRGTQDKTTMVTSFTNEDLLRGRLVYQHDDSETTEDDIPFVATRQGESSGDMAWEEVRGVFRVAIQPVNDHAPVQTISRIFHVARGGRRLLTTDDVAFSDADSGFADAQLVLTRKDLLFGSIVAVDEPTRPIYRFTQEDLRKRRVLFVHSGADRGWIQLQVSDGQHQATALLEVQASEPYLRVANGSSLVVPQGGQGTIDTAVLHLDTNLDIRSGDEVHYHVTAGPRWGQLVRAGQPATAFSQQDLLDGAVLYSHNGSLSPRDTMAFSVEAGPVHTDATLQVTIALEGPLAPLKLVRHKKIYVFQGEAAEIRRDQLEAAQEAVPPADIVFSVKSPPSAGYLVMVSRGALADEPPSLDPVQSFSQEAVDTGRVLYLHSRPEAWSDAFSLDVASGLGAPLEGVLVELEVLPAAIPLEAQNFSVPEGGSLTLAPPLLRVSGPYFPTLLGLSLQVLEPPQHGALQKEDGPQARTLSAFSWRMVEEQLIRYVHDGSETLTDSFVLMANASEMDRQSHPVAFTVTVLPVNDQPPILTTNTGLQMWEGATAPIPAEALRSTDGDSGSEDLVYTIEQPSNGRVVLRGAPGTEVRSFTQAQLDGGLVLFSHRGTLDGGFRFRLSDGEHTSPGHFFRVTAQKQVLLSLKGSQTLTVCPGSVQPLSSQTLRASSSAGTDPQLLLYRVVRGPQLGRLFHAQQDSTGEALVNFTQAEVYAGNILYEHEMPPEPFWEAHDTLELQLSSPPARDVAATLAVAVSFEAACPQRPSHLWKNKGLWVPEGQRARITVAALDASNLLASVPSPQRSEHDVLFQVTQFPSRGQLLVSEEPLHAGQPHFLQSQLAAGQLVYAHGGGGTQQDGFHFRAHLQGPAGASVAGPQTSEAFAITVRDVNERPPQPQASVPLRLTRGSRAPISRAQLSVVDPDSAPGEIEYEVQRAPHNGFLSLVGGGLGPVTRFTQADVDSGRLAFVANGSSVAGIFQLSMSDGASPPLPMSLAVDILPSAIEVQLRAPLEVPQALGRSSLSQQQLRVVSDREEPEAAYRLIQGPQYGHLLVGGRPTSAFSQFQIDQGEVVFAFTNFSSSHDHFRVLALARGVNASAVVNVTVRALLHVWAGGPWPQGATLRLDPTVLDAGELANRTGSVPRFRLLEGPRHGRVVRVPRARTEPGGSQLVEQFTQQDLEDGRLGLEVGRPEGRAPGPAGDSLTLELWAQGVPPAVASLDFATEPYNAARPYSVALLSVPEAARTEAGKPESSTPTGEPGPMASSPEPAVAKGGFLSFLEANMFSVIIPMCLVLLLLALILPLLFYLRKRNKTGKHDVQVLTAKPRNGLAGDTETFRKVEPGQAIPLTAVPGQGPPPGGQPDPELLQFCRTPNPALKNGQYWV
Sequence of ADT3 in human lung fibroblasts (human) (P12236 whole entry): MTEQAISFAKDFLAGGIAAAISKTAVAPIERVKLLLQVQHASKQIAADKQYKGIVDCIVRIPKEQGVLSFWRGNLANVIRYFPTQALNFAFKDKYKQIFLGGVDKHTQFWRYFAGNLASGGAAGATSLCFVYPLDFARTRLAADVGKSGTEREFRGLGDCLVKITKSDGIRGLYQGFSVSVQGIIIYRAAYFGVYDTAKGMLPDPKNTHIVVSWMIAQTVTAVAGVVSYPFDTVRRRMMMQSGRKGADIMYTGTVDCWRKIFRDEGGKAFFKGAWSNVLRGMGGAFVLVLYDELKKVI
Sequence of CAVN1 in human lung fibroblasts (human) (Q6NZI2 whole entry): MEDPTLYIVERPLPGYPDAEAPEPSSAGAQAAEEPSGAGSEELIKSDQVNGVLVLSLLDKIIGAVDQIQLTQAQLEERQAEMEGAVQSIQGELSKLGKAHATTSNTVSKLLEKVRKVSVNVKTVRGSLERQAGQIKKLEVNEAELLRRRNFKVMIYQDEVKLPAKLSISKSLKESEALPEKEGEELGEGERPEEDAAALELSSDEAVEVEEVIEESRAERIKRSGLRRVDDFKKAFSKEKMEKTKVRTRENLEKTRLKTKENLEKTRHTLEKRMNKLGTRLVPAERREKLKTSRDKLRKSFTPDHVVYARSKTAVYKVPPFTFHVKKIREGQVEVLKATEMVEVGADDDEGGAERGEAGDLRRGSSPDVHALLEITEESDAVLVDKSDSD

Substance: recombinant human IGFBP5 (from UniProt P24593 21-272) (ligand)
- log2(FC) IGFBP5 vs BSA (log2 fold change) [1]: -1.6
- log2(FC) IGFBP5 vs BSA (log2 fold change) [2]: -2.2
- log2(FC) IGFBP5 vs BSA (log2 fold change) [3]: -0.8
- log2(FC) IGFBP5 vs BSA (log2 fold change) [4]: -5.9
- log2(FC) IGFBP5 vs BSA (log2 fold change) [5]: -3.8
- log2(FC) IGFBP5 vs BSA (log2 fold change) [6]: -2.2
- log2(FC) IGFBP5 vs BSA (log2 fold change) [7]: -2.5
- log2(FC) IGFBP5 vs BSA (log2 fold change) [8]: -4.3
- log2(FC) IGFBP5 vs BSA (log2 fold change) [9]: -1.5
- log2(FC) IGFBP5 vs BSA (log2 fold change) [10]: -4.9
- log2(FC) IGFBP5 vs TRFE (log2 fold change) [11]: -1
- log2(FC) IGFBP5 vs TRFE (log2 fold change) [12]: -1.8
- log2(FC) IGFBP5 vs TRFE (log2 fold change) [13]: -0.6
- log2(FC) IGFBP5 vs TRFE (log2 fold change) [14]: -5.5
- log2(FC) IGFBP5 vs TRFE (log2 fold change) [15]: -3.7
- log2(FC) IGFBP5 vs TRFE (log2 fold change) [16]: -2.3
- log2(FC) IGFBP5 vs TRFE (log2 fold change) [17]: -1.7
- log2(FC) IGFBP5 vs TRFE (log2 fold change) [18]: -2.3
- log2(FC) IGFBP5 vs TRFE (log2 fold change) [19]: -1
- log2(FC) IGFBP5 vs TRFE (log2 fold change) [20]: -4.1
